Measurements published in patent US20090318673A1 (NEC SOFT, published 2009).

Target: the molecule itself
Assay: X-ray crystal structure, 1.9 A, space group C2221
From the text: Programs, MOSFLM and SCALA (CCP4) were used in the data processing of the detected diffraction pattern and intensity data.

B1: GFP-like fluorescent protein from Chiridius poppei, CpYGFP (recombinant, wild type) (other)
chain: MTTFKIESRIHGNLNGEKFELVGGGVGEEGRLEIEMKTKDKPLAFSPFLLSHCMGYGFYHFASFPKGTKNIYLHAATNGGYTNTRKEIYEDGGILEVNFRYTYEFNKIIGDVECIGHGFPSQSPIFKDTIVKSCPTVDLMLPMSGNIIASSYARAFQLKDGSFYTAEVKNNIDFKNPIHESFSKSGPMFTHRRVEETHTKENLAMVEYQQVFNSAPRDM
modifications: G55-Y56-G57 cyclised and oxidised to the p-hydroxybenzylideneimidazolinone fluorescent moiety
notes: Expressed in E. coli from pET101-NFP, purified and crystallised; In the crystal (space group C2221, PDB 2DD7) it is seen as a dimer; also called recombinant CpYGFP; wild-type CpYGFP
  binding result: binds
